Laboratory results taken from US9297028B2, “Fermentive production of four carbon alcohols” (Butamax Advanced Biofuels LLC, priority 2005, dated 2016).

What was measured:
Type in all cases: biochemical
[1] = Trans-2-enoyl-CoA reductase (butyryl-CoA dehydrogenase) activity assayed as described by Hoffmeister et al.
Method: Trans-2-enoyl-CoA reductase activity was assayed as described by Hoffmeister et al. (J. Biol. Chem. 280, 4329-4338 (2005)). In one typical assay, the specific activity of the TER CAC0462 protein in the induced culture was determined to be 0.694 μmol mg^−1 min^−1 compared to 0.0128 μmol mg^−1 min^−1 in the uninduced culture.
Trans-2-enoyl-CoA reductase activity was assayed as described by Hoffmeister et al., J. Biol. Chem. 280:4329 (2005). In a typical assay, the specific activity of the EgTER(opt) protein in the induced BL21 (DE3)/pET23+::EgTER(opt) culture was determined to be 1.9 μmol mg^−1 min^−1 compared to 0.547 μmol mg^−1 min^−1 in the uninduced culture.
(§1) For enzyme activity analysis, a single colony of each strain was streaked onto a fresh plate containing SD minimal drop out medium and incubated at 30° C. for 2 days. The cells on this plate were used to inoculate 20 mL of SD drop out medium and in a 125 mL shake flask and grown overnight at 30° C., with shaking at 250 rpm. The optical density (OD600) of the overnight culture was measured, and the culture was diluted to an OD600=0.1 in 250 mL of the same medium in a 1.0 L shake flask, and grown at 30° C. with shaking at 250 rpm to an OD600 of between 0.8 to 1.0. The cells were then harvested by centrifugation at 2000×g for 10 min, and resuspended in 20 mL of 50 mM Tris-HCl buffer, pH 8.5. Enzyme assays were performed as described above.

[2] = Acetoacetyl-CoA thiolase activity in cell free extracts (decrease in absorbance at 303 nm); conditions: yeast strain BY4741 (pNY6), ERG10 gene, in words
Method: Acetoacetyl-CoA thiolase activity in the cell free extracts was measured as degradation of a Mg^2+-acetoacetyl-CoA complex by monitoring the decrease in absorbance at 303 nm. Standard assay conditions were 100 mM Tris-HCl pH 8.0, 1 mM DTT (dithiothreitol) and 10 mM MgCl2. The cocktail was equilibrated for 5 min at 37° C.; then the cell-free extract was added. The reaction was initiated with the addition of 0.05 mM acetoacetyl-CoA plus 0.2 mM CoA. Protein concentration was measured by either the Bradford method or by the Bicinchoninic Kit (Sigma, catalog no. BCA-1). Bovine serum albumin (Bio-Rad, Hercules, Calif.) was used as the standard in both cases. In one typical assay, the specific activity of the ThlA protein in the induced culture was determined to be 16.0 μmol mg^−1 min^−1 compared to 0.27 μmol mg^−1 min^−1 in the uninduced culture.
For enzyme activity analysis, a single colony of each strain was streaked onto a fresh plate containing SD minimal drop out medium and incubated at 30° C. for 2 days. […] The optical density (OD600) of the overnight culture was measured, and the culture was diluted to an OD600=0.1 in 250 mL of the same medium in a 1.0 L shake flask, and grown at 30° C. with shaking at 250 rpm to an OD600 of between 0.8 to 1.0. […]

[3] = Crotonase activity assayed as described by Stern
Method: Crotonase activity was assayed as described by Stern (Methods Enzymol. 1, 559-566, (1954)). In one typical assay, the specific activity of the crotonase protein in the induced culture was determined to be 444 μmol mg^−1 min^−1 compared to 47 μmol mg^−1 min^−1 in the uninduced culture.
as §1

[4] = Acylating aldehyde dehydrogenase activity (formation of NADH, absorbance at 340 nm); conditions: yeast BY4741 transformants containing pNY8
Method: Acylating aldehyde dehydrogenase activity was determined by monitoring the formation of NADH, as measured by the increase in absorbance at 340 nm, as described by Husemann et al. (Appl. Microbiol. Biotechnol. 31:435-444 (1989)). In one typical assay, the specific activity of the Aid protein in the induced culture was determined to be 0.106 μmol mg^−1 min^−1 compared to 0.01 μmol mg^−1 min^−1 in the uninduced culture
as §1

B1: EgTER(opt): butyryl-CoA dehydrogenase (TER) from Euglena gracilis, codon optimized gene lacking the normal mitochondrial presequence (protein, UniProt Q5EU90 69-539, looked up)
Trans-2-enoyl-CoA reductase: VPQMAEGFSGEATSAWAAAGPQWAAPLVAAASSALALWWWAARRSVRRPLAALAELPTAVTHLAPPMAMFTTTAKVIQPKIRGFICTTTHPIGCEKRVQEEIAYARAHPPTSPGPKRVLVIGCSTGYGLSTRITAAFGYQAATLGVFLAGPPTKGRPAAAGWYNTVAFEKAALEAGLYARSLNGDAFDSTTKARTVEAIKRDLGTVDLVVYSIAAPKRTDPATGVLHKACLKPIGATYTNRTVNTDKAEVTDVSIEPASPEEIADTVKVMGGEDWELWIQALSEAGVLAEGAKTVAYSYIGPEMTWPVYWSGTIGEAKKDVEKAAKRITQQYGCPAYPVVAKALVTQASSAIPVVPLYICLLYRVMKEKGTHEGCIEQMVRLLTTKLYPENGAPIVDEAGRVRVDDWEMAEDVQQAVKDLWSQVSTANLKDISDFAGYQTEFLRLFGFGIDGVDYDQPVDVEADLPSAAQQ
For B1, the “specific activity (trans-2-enoyl-CoA reductase)” value ([1]; induced BL21 (DE3)/pET23+::EgTER(opt) culture) was 1.9 µmol/mg/min and the butyryl-CoA dehydrogenase activity ([1]; pTrc99a-EgTER(opt) compared with CaTER constructs, in words) was “Higher”.

B2: ERG10: product of the Saccharomyces cerevisiae ERG10 gene, a functional ortholog of the thlA gene (protein, UniProt P41338 2-398, looked up)
Acetyl-CoA acetyltransferase: SQNVYIVSTARTPIGSFQGSLSSKTAVELGAVALKGALAKVPELDASKDFDEIIFGNVLSANLGQAPARQVALAAGLSNHIVASTVNKVCASAMKAIILGAQSIKCGNADVVVAGGCESMTNAPYYMPAARAGAKFGQTVLVDGVERDGLNDAYDGLAMGVHAEKCARDWDITREQQDNFAIESYQKSQKSQKEGKFDNEIVPVTIKGFRGKPDTQVTKDEEPARLHVEKLRSARTVFQKENGTVTAANASPINDGAAAVILVSEKVLKEKNLKPLAIIKGWGEAAHQPADFTWAPSLAVPKALKHAGIEDINSVDYFEFNEAFSVVGLVNTKILKLDPSKVNVYGGAVALGHPLGCSGARVVVTLLSILQQEGGKIGVAAICNGGGGASSIVIEKI
For B2, the thiolase activity [2] was “no thiolase activity”.

B3: crotonase: crotonase encoded by crt from C. acetobutylicum ATCC 824, SEQ ID NO:8 (protein, listed as Clostridium acetobutylicum)
chain: MELNNVILEKEGKVAVVTINRPKALNALNSDTLKEMDYVIGEIENDSEVLAVILTGAGEKSFVAGADISEMKEMNTIEGRKFGILGNKVFRRLELLEKPVIAAVNGFALGGGCEIAMSCDIRIASSNARFGQPEVGLGITPGFGGTQRLSRLVGMGMAKQLIFTAQNIKADEALRIGLVNKVVEPSELMNTAKEIANKIVSNAPVAVKLSKQAINRGMQCDIDTALAFESEAFGECFSTEDQKDAMTAFIEKRKIEGFKNR
For B3, the Crt activity ([3]; yeast strain BY4741 (pNY11: pRS426-GPM1-crt-GPM1t)) was 85 U/mg and the Crt enzyme activity ([3]; yeast strain DPD5200 (BY4743/pNY103), standard conditions) was 23.0 U/mg.

B4: Ald: butyraldehyde dehydrogenase encoded by ald from C. beijerinckii ATCC 35702, SEQ ID NO:12; in yeast from codon optimized aldy, SEQ ID NO:189 (protein, listed as Clostridium beijerinckii)
chain: MNKDTLIPTTKDLKVKTNGENINLKNYKDNSSCFGVFENVENAISSAVHAQKILSLHYTKEQREKIITEIRKAALQNKEVLATMILEETHMGRYEDKILKHELVAKYTPGTEDLTTTAWSGDNGLTVVEMSPYGVIGAITPSTNPTETVICNSIGMIAAGNAVVFNGHPCAKKCVAFAVEMINKAIISCGGPENLVTTIKNPTMESLDAIIKHPSIKLLCGTGGPGMVKTLLNSGKKAIGAGAGNPPVIVDDTADIEKAGRSIIEGCSFDNNLPCIAEKEVFVFENVADDLISNMLKNNAVIINEDQVSKLIDLVLQKNNETQEYFINKKWVGKDAKLFLDEIDVESPSNVKCIICEVNANHPFVMTELMMPILPIVRVKDIDEAIKYAKIAEQNRKHSAYIYSKNIDNLNRFEREIDTTIFVKNAKSFAGVGYEAEGFTTFTIAGSTGEGITSARNFTRQRRCVLAG
For B4, the “Ald specific activity towards butyryl-CoA” value [4] was “approximately 0.07 U/mg”.

B5: Ter: butyl-CoA dehydrogenase (ter) encoded by the codon optimized tery gene, SEQ ID NO:187 (protein)
chain: MLVKAKFVKGFIRDVHPYGCRREVLNQIDYCKKAIGFRGPKKVLIVGASSGFGLATRISVAFGGPEAHTIGVSYETGATDRRIGTAGWYNNIFFKEFAKKKGLVAKNFIEDAFSNETKDKVIKYIKDEFGKIDLFVYSLAAPRRKDYKTGNVYTSRIKTILGDFEGPTIDVERDEITLKKVSSASIEEIEETRKVMGGEDWQEWCEELLYEDCFSDKATTIAYSYIGSPRTYKIYREGTIGIAKKDLEDKAKLINEKLNRVIGGRAFVSVNKALVTKASAYIPTFPLYAAILYKVMKEKNIHENCIMQIERMFSEKIYSNEKIQFDDKGRLRMDDLELRKDVQDEVDRIWSNITPENFKELSDYKGYKKEFMNLNGFDLDGVDYSKDLDIELLRKLEP
modifications: Modified Ter protein
B5 gave a Ter activity ([1]; yeast BY4741 transformant of pNY9) of 0.26 U/mg and a Ter activity ([1]; yeast BY4741 transformed with pNY13, SD-His medium) of 0.19 U/mg.
